Ends that are not written are not given here.
T1: corticotropin releasing factor 2 receptor
T1 sequence (Q13324 whole entry, species assumed, looked up): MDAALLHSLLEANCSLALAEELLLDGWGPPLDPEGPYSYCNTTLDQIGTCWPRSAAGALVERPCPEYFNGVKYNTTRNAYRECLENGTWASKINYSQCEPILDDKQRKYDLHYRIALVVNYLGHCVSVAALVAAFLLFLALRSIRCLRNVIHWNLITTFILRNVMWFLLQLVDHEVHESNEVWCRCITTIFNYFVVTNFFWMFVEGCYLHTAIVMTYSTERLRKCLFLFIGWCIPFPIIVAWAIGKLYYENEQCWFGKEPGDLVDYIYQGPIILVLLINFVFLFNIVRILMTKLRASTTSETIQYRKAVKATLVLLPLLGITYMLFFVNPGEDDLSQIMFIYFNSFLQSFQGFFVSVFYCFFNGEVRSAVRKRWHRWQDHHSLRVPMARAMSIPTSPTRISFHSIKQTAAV


How the values were obtained:
[1] = target: corticotropin releasing factor 1 receptor; assay: cell-based or functional assay
[2] = target: T1, corticotropin releasing factor 2 …; assay: cell-based or functional assay

Binder	CRF1R EC50 [1]	CRF1R Emax % [1]	CRF2R EC50 [2]	CRF2R Emax % [2]
IVLSLDVPIGLLQKMIEIEKQEKEKQQATTNARILARV-NH2 [SEQ ID NO 322]	1 µM	10.7%	0.0231 µM	96.5%
ZGPPISIDLPYHLLRKMIEIEKQEKEKQQAANNALLLAT (C-terminal amide) [SEQ ID NO 315]	0.455 µM	100%	0.00935 µM	81.7%
ZGPPISIDLPLQLLRKVIEIEKQEKEKQQATTNARILARV (C-terminal amide) [SEQ ID NO 320]	0.718 µM	68.8%	0.0191 µM	100%
ZGPPISIDLPFQLLRKTIEIEKQEKEKQQATTNARLLDRV (C-terminal amide) [SEQ ID NO 321]	1 µM	33.8%	0.0196 µM	86.8%
IVLSLDVPIGLLQKVIEIEKQEKEKQQATTNARILARV-NH2 [SEQ ID NO 300]	1 µM	7.95%	0.0171 µM	100%
ZGPPISIDLPIILLRKVIEIEKQEKEKQQAANNRLLLDTI (C-terminal amide) [SEQ ID NO 297]	1 µM	27.2%	0.1 µM	88.3%
ZGPPISIDLPFFLLRKVIEIEKQEKEKQQAANNALLLATI (C-terminal amide) [SEQ ID NO 317]	0.188 µM	100%	0.0093 µM	88.3%
ZGPPISIDLPFFLLRKMIEIEKQEKEKQQAANNALLLDTI (C-terminal amide) [SEQ ID NO 318]	0.135 µM	92.8%	0.00995 µM	95.4%
ZGPPISIDLPFALLRKMIEIEKQEKEKQQAANNRLLLDTI (not fully specified; C-terminal amide) [SEQ ID NO 307]	0.0784 µM	92.7%	0.00582 µM	96.5%
ZGPPISIDLPYHLLRKMIEIEKQEKEKQQAANNALLLDTI (C-terminal amide) [SEQ ID NO 314]	0.979 µM	82.4%	0.0103 µM	99.8%
ZGPPISIDLPYWLLRKVIEIEKQEKEKQQAANNALLLDTI (C-terminal amide) [SEQ ID NO 311]	1 µM	29.7%	0.0117 µM	100%
ZGPPISIDLPLALLRKMIEIEKQEKEKQQAANNRLLLDTI (not fully specified; C-terminal amide) [SEQ ID NO 308]	0.0635 µM	100%	0.0033 µM	72.8%
ZGPPISIDLPFFLLRKMIEIEKQEKEKQQAANNALLLATI (C-terminal amide) [SEQ ID NO 319]	0.106 µM	88.3%	0.0085 µM	95%
ZGPPISIDLPIFLLRKMIEIEKQEKEKQQAANNALLLATI (C-terminal amide) [SEQ ID NO 298]	1 µM	20.1%	0.082 µM	98.8%
ZGPPISIDLPHALLRKMIEIEKQEKEKQQAANNRLLLDTI (not fully specified; C-terminal amide) [SEQ ID NO 304]	0.116 µM	100%	0.0193 µM	92.5%
ZGPPISIDLPVALLRKMIEIEKQEKEKQQAANNRLLLDTI (not fully specified; C-terminal amide) [SEQ ID NO 305]	1 µM	59.5%	0.0355 µM	95.2%
ZGPPISIDLPQILLRKVIEIEKQEKEKQQAANNALLLATI (C-terminal amide) [SEQ ID NO 299]	1 µM	10.2%	0.0464 µM	71.5%
ZGPPISIDLPYALLRKMIEIEKQEKEKQQAANNRLLLDTI (not fully specified; C-terminal amide) [SEQ ID NO 309]	0.107 µM	96.3%	0.00555 µM	99.9%
ZGPPISIDLPQALLRKMIEIEKQEKEKQQAANNRLLLDTI (not fully specified; C-terminal amide) [SEQ ID NO 302]	0.366 µM	100%	0.0362 µM	100%
ZGPPISIDLPFFLLRKVIEIEKQEKEKQQAANNALLLDTI (C-terminal amide) [SEQ ID NO 316]	0.222 µM	92.3%	0.0102 µM	94.5%
ZGPPISIDLPYWLLRKMIEIEKQEKEKQQAANNALLLDTI (C-terminal amide) [SEQ ID NO 310]	1 µM	45.3%	0.0087 µM	87.5%
ZGPPISIDLPTALLRKMIEIEKQEKEKQQAANNRLLLDTI (not fully specified; C-terminal amide) [SEQ ID NO 301]	0.69 µM	84.1%	0.0505 µM	88.4%
ZGPPISIDLPAALLRKMIEIEKQEKEKQQAANNRLLLDTI (not fully specified; C-terminal amide) [SEQ ID NO 303]	0.582 µM	100%	0.0272 µM	100%
ZGPPISIDLPYHLLRKVIEIEKQEKEKQQAANNALLLATI (C-terminal amide) [SEQ ID NO 313]	0.704 µM	87.1%	0.0111 µM	95%
ZGPPISIDLPIALLRKMIEIEKQEKEKQQAANNRLLLDTI (not fully specified; C-terminal amide) [SEQ ID NO 306]	0.608 µM	97.7%	0.0276 µM	100%
ZGPPISIDLPYHLLRKVIEIEKQEKEKQQAANNALLLDTI (C-terminal amide) [SEQ ID NO 312]	0.87 µM	62%	0.0141 µM	95%
DNPSLSIDLPLLLLRTLLELEKTQSQRERAEQNAEIFAEV-NH2 [SEQ ID NO 323]	1 µM	36.9%	0.0196 µM	100%
HHHHHHIVLSLDVPIGLLQILLEQARARAAREQATTNARILARN-NH2 [SEQ ID NO 296]	0.1 µM	4%	0.00666 µM	65%
